Patent US20230002472A1 (NEURACLE GENETICS, published 2023)

Tests used:
[1] = biological target: T1, tetrameric human PD-L1 (PD-L1-streptavidin-His tag) (human, UniProt Q9NZQ7 19-238, Alexa-488 label (labelled form used in Example 3 ELISA and in all flow cytometry)); assay: ELISA, PD-1 protein coated at 200 ng/well, PD-L1 tetramer, anti-streptavidin-HRP
T1 construct: range 19-238; Expressed in HEK293F, purified on Ni-NTA; both are kept as one molecule; also called PD-L1 tetramer; tetrameric PD-L1-streptavidin; not shown: GS linker between PD-L1 and streptavidin; streptavidin fused at the C-terminal of PD-L1 to induce tetramerization; His tag

[2] = biological target: T1, tetrameric human PD-L1 …; assay: flow cytometry of E. coli spheroplasts with tetrameric PD-L1-Alexa488
[3] = biological target: T1, tetrameric human PD-L1 …; assay: flow cytometry of E. coli spheroplasts, 12.5 nM tetrameric PD-L1-Alexa488

T1 sequence (Q9NZQ7 19-238): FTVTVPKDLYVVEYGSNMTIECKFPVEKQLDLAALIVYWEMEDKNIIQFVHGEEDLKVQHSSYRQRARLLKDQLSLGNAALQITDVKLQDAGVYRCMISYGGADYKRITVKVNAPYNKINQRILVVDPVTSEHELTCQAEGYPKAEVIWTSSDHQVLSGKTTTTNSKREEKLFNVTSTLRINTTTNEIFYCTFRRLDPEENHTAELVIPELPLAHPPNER

B1: GPD1-CKJ 49: glycosylated form of CKJ 49 (PD1 CKJ 49-His tag, expressed in HEK293F) (receptor)
chain: LDSPDRPWNPPTLSPALLVVTEGDDATFTCSFSNTSESFVLNWYRMSPSNQTDKLAAFPEDRSQPGQDSRFRVTQLPNGRDFHMSVVRARRSDSGTYLCGAISLAPKAQIKESLRAELRVTERRAEVPTAHPSPSPKPAGQFQ
notes: Soluble, glycosylated, purified on Ni-NTA; coated on the ELISA plate; also called pMaz-PD1 CKJ 49-His tag; not shown: His tag
Q: Does B1 bind [1]?
A: Result: binds

B2: PD-1 variant CKJ 41A, S36P/C69A/L114P, displayed on E. coli (receptor)
chain: LDSPDRPWNPPTFSPALLVVTEGDNATFTCSFSNTPESFVLNWYRMSPSNQTDKLAAFPEDRSQPGQDARFRVTQLPNGRDFHMSVVRARRNDSGTYLCGAISLAPKAQIKESPRAELRVTERRAEVPTAHPSPSPRPAGQFQ
notes: Made by QuikChange PCR on CKJ 41; not shown: NlpA signal peptide / inner membrane anchor of the pMopac12-NlpA-FLAG vector; FLAG tag
Q: Does B2 bind [2]?
A: Result: binds

B3: PD-1 variant CKJ 41G, S36P/C69G/L114P, displayed on E. coli (receptor)
chain: LDSPDRPWNPPTFSPALLVVTEGDNATFTCSFSNTPESFVLNWYRMSPSNQTDKLAAFPEDRSQPGQDGRFRVTQLPNGRDFHMSVVRARRNDSGTYLCGAISLAPKAQIKESPRAELRVTERRAEVPTAHPSPSPRPAGQFQ
notes: as for B2
Q: Does B3 bind [2]?
A: Result: binds

B4: PD-1 variant CKJ 41T, S36P/C69T/L114P, displayed on E. coli (receptor)
chain: LDSPDRPWNPPTFSPALLVVTEGDNATFTCSFSNTPESFVLNWYRMSPSNQTDKLAAFPEDRSQPGQDTRFRVTQLPNGRDFHMSVVRARRNDSGTYLCGAISLAPKAQIKESPRAELRVTERRAEVPTAHPSPSPRPAGQFQ
notes: also called APD1-CKJ 41T; pMopac12-NIpA-PD-1 CKJ 41T-FLAG; not shown: NlpA signal peptide / inner membrane anchor of the pMopac12-NlpA-FLAG vector; FLAG tag
Q: Does B4 bind [3]?
A: Result: binds

B5: PD-1 variant CKJ 41Y, S36P/C69Y/L114P, displayed on E. coli (receptor)
chain: LDSPDRPWNPPTFSPALLVVTEGDNATFTCSFSNTPESFVLNWYRMSPSNQTDKLAAFPEDRSQPGQDYRFRVTQLPNGRDFHMSVVRARRNDSGTYLCGAISLAPKAQIKESPRAELRVTERRAEVPTAHPSPSPRPAGQFQ
notes: as for B2
Q: Does B5 bind [2]?
A: Result: binds

B6: PD-1 variant JY101, N1S/F13I/L17M/S36P/M46I/C69T/G79R/G100V/L114P/A139L, displayed on E. coli (receptor)
chain: SDSPDRPWNPPTISPAMLVVTEGDNATFTCSFSNTPESFVLNWYRISPSNQTDKLAAFPEDRSQPGQDTRFRVTQLPNRRDFHMSVVRARRNDSGTYLCVAISLAPKAQIKESPRAELRVTERRAEVPTAHPSPSPRPLGQFQ
notes: From the secondary library on CKJ 41T; also called APD1-JY 101; not shown: NlpA signal peptide / inner membrane anchor of the pMopac12-NlpA-FLAG vector; FLAG tag
Q: Does B6 bind [2]?
A: Result: binds

B7: PD-1 variant No. 41 (CKJ 41), S36P/C69S/L114P, displayed on E. coli (receptor)
chain: LDSPDRPWNPPTFSPALLVVTEGDNATFTCSFSNTPESFVLNWYRMSPSNQTDKLAAFPEDRSQPGQDSRFRVTQLPNGRDFHMSVVRARRNDSGTYLCGAISLAPKAQIKESPRAELRVTERRAEVPTAHPSPSPRPAGQFQ
notes: not shown: NlpA signal peptide / inner membrane anchor of the pMopac12-NlpA-FLAG vector; FLAG tag
Q: Does B7 bind [2]?
A: Result: binds

B8: PD-1 variant No. 44 (CKJ 44), F13I/M46I/N50S/C69Y/V127A, displayed on E. coli (receptor)
chain: LDSPDRPWNPPTISPALLVVTEGDNATFTCSFSNTSESFVLNWYRISPSSQTDKLAAFPEDRSQPGQDYRFRVTQLPNGRDFHMSVVRARRNDSGTYLCGAISLAPKAQIKESLRAELRVTERRAEAPTAHPSPSPRPAGQFQ
notes: as for B7
Q: Does B8 bind [3]?
A: Result: binds

B9: PD-1 variant No. 45 (CKJ 45), S36P/C69S/K107N/L114P/F142L, displayed on E. coli (receptor)
chain: LDSPDRPWNPPTFSPALLVVTEGDNATFTCSFSNTPESFVLNWYRMSPSNQTDKLAAFPEDRSQPGQDSRFRVTQLPNGRDFHMSVVRARRNDSGTYLCGAISLAPNAQIKESPRAELRVTERRAEVPTAHPSPSPRPAGQLQ
notes: as for B7
Q: Does B9 bind [3]?
A: Result: binds

B10: PD-1 variant No. 46 (CKJ 46), S36P/C69S/L114P/P132L, displayed on E. coli (receptor)
chain: LDSPDRPWNPPTFSPALLVVTEGDNATFTCSFSNTPESFVLNWYRMSPSNQTDKLAAFPEDRSQPGQDSRFRVTQLPNGRDFHMSVVRARRNDSGTYLCGAISLAPKAQIKESPRAELRVTERRAEVPTAHLSPSPRPAGQFQ
notes: as for B7
Q: Does B10 bind [3]?
A: Result: binds

B11: PD-1 variant No. 49 (CKJ 49), F13L/N25D/C69S/N92S/R137K, displayed on E. coli (receptor)
chain: LDSPDRPWNPPTLSPALLVVTEGDDATFTCSFSNTSESFVLNWYRMSPSNQTDKLAAFPEDRSQPGQDSRFRVTQLPNGRDFHMSVVRARRSDSGTYLCGAISLAPKAQIKESLRAELRVTERRAEVPTAHPSPSPKPAGQFQ
notes: as for B7
Q: Does B11 bind [3]?
A: Result: binds

B12: PD-1 variant No. 50 (CKJ 50), F13L/N25D/C69S/R88K/N92S/A125S, displayed on E. coli (receptor)
chain: LDSPDRPWNPPTLSPALLVVTEGDDATFTCSFSNTSESFVLNWYRMSPSNQTDKLAAFPEDRSQPGQDSRFRVTQLPNGRDFHMSVVKARRSDSGTYLCGAISLAPKAQIKESLRAELRVTERRSEVPTAHPSPSPRPAGQFQ
notes: as for B7
Q: Does B12 bind [3]?
A: Result: binds

B13: PD-1 variant No. 52 (CKJ 52), F13I/M46I/C69Y, displayed on E. coli (receptor)
chain: LDSPDRPWNPPTISPALLVVTEGDNATFTCSFSNTSESFVLNWYRISPSNQTDKLAAFPEDRSQPGQDYRFRVTQLPNGRDFHMSVVRARRNDSGTYLCGAISLAPKAQIKESLRAELRVTERRAEVPTAHPSPSPRPAGQFQ
notes: as for B7
Q: Does B13 bind [3]?
A: Result: binds

B14: PD-1 variant No. 55 (CKJ 55), N25D/C69S/N92S/A101V, displayed on E. coli (receptor)
chain: LDSPDRPWNPPTFSPALLVVTEGDDATFTCSFSNTSESFVLNWYRMSPSNQTDKLAAFPEDRSQPGQDSRFRVTQLPNGRDFHMSVVRARRSDSGTYLCGVISLAPKAQIKESLRAELRVTERRAEVPTAHPSPSPRPAGQFQ
notes: as for B7
Q: Does B14 bind [3]?
A: Result: binds

B15: PD-1 variant No. 56 (CKJ 56), S36P/C69S/N92K/L114P/H131R, displayed on E. coli (receptor)
chain: LDSPDRPWNPPTFSPALLVVTEGDNATFTCSFSNTPESFVLNWYRMSPSNQTDKLAAFPEDRSQPGQDSRFRVTQLPNGRDFHMSVVRARRKDSGTYLCGAISLAPKAQIKESPRAELRVTERRAEVPTARPSPSPRPAGQFQ
notes: as for B7
Q: Does B15 bind [3]?
A: Result: binds

B16: PD-1 variant No. 66 (CKJ 66), N9D/N25D/C69S/N92S/A101V, displayed on E. coli (receptor)
chain: LDSPDRPWDPPTFSPALLVVTEGDDATFTCSFSNTSESFVLNWYRMSPSNQTDKLAAFPEDRSQPGQDSRFRVTQLPNGRDFHMSVVRARRSDSGTYLCGVISLAPKAQIKESLRAELRVTERRAEVPTAHPSPSPRPAGQFQ
notes: as for B7
Q: Does B16 bind [3]?
A: Result: binds

B17: PD-1 variant No. 67 (CKJ 67), N34T/S36P/C69S/L114P, displayed on E. coli (receptor)
chain: LDSPDRPWNPPTFSPALLVVTEGDNATFTCSFSTTPESFVLNWYRMSPSNQTDKLAAFPEDRSQPGQDSRFRVTQLPNGRDFHMSVVRARRNDSGTYLCGAISLAPKAQIKESPRAELRVTERRAEVPTAHPSPSPRPAGQFQ
notes: as for B7
Q: Does B17 bind [3]?
A: Result: binds

B18: PD-1 variant No. 78 (CKJ 78), T12S/S36P/C69S/L114P, displayed on E. coli (receptor)
chain: LDSPDRPWNPPSFSPALLVVTEGDNATFTCSFSNTPESFVLNWYRMSPSNQTDKLAAFPEDRSQPGQDSRFRVTQLPNGRDFHMSVVRARRNDSGTYLCGAISLAPKAQIKESPRAELRVTERRAEVPTAHPSPSPRPAGQFQ
notes: as for B7
Q: Does B18 bind [3]?
A: Result: binds

B19: PD-1_LDSS variant, F13L/N25D/C69S/N92S, displayed on E. coli (receptor)
chain: LDSPDRPWNPPTLSPALLVVTEGDDATFTCSFSNTSESFVLNWYRMSPSNQTDKLAAFPEDRSQPGQDSRFRVTQLPNGRDFHMSVVRARRSDSGTYLCGAISLAPKAQIKESLRAELRVTERRAEVPTAHPSPSPRPAGQFQ
notes: Made by QuikChange PCR on the CKJ 49 vector; not shown: NlpA signal peptide / inner membrane anchor of the pMopac12-NlpA-FLAG vector; FLAG tag
Q: Does B19 bind [2]?
A: Result: binds
